B1: PTP1B: protein tyrosine phosphatase-1B, overexpressed by adenovirus-mediated gene transfer (protein, UniProt P18031 1-435, looked up)
Tyrosine-protein phosphatase …: MEMEKEFEQIDKSGSWAAIYQDIRHEASDFPCRVAKLPKNKNRNRYRDVSPFDHSRIKLHQEDNDYINASLIKMEEAQRSYILTQGPLPNTCGHFWEMVWEQKSRGVVMLNRVMEKGSLKCAQYWPQKEEKEMIFEDTNLKLTLISEDIKSYYTVRQLELENLTTQETREILHFHYTTWPDFGVPESPASFLNFLFKVRESGSLSPEHGPVVVHCSAGIGRSGTFCLADTCLLLMDKRKDPSSVDIKKVLLEMRKFRMGLIQTADQLRFSYLAVIEGAKFIMGDSSVQDQWKELSHEDLEPPPEHIPPPPRPPKRILEPHNGKCREFFPNHQWVKEETQEDKDCPIKEEKGSPLNAAPYGIESMSQDTEVRSRVVGGSLRGAQAASPAKGEPSLPEKDEDHALSYWKPFLVNMCVATVLTAGAYLCYRFLFNSNT
B2: DynK44A: dominant-negative mutant of dynamin in which the lysine 44 is substituted by an alanine (protein, UniProt Q05193 1-864, looked up, variant K44A)
Dynamin-1: MGNRGMEDLIPLVNRLQDAFSAIGQNADLDLPQIAVVGGQSAGASSVLENFVGRDFLPRGSGIVTRRPLVLQLVNATTEYAEFLHCKGKKFTDFEEVRLEIEAETDRVTGTNKGISPVPINLRVYSPHVLNLTLVDLPGMTKVPVGDQPPDIEFQIRDMLMQFVTKENCLILAVSPANSDLANSDALKVAKEVDPQGQRTIGVITKLDLMDEGTDARDVLENKLLPLRRGYIGVVNRSQKDIDGKKDITAALAAERKFFLSHPSYRHLADRMGTPYLQKVLNQQLTNHIRDTLPGLRNKLQSQLLSIEKEVEEYKNFRPDDPARKTKALLQMVQQFAVDFEKRIEGSGDQIDTYELSGGARINRIFHERFPFELVKMEFDEKELRREISYAIKNIHGIRTGLFTPDMAFETIVKKQVKKIREPCLKCVDMVISELISTVRQCTKKLQQYPRLREEMERIVTTHIREREGRTKEQVMLLIDIELAYMNTNHEDFIGFANAQQRSNQMNKKKTSGNQDEILVIRKGWLTINNIGIMKGGSKEYWFVLTAENLSWYKDDEEKEKKYMLSVDNLKLRDVEKGFMSSKHIFALFNTEQRNVYKDYRQLELACETQEEVDSWKASFLRAGVYPERVGDKEKASETEENGSDSFMHSMDPQLERQVETIRNLVDSYMAIVNKTVRDLMPKTIMHLMINNTKEFIFSELLANLYSCGDQNTLMEESAEQAQRRDEMLRMYHALKEALSIIGDINTTTVSTPMPPPVDDSWLQVQSVPAGRRSPTSSPTPQRRAPAVPPARPGSRGPAPGPPPAGSALGGAPPVPSRPGASPDPFGPPPQVPSRPNRAPPGVPSRSGQASPSRPESPRPPFDL

Columns and labels:
PDGFR = assay: Effect of PTP1B overexpression on PDGF-stimulated PIP3 increase in CHO-PDGFR cells; assay type: cell-based, Chinese hamster; settings: PTP1B overexpressed
Excerpt: For further dissecting the PIP3 dynamics in the endomembranes, protein tyrosine phosphatase-1B (PTP1B) was overexpressed in CHO-PDGFR cells by adenovirus-mediated gene transfer. The PTP1B is localized exclusively on the cytoplasmic surface of the ER (Frangioni, J. V., Beaham, P. H., Shifrin, V., Jost, C. A. and Neel, B. G. (1992) Cell, 68, 545-560). It has recently been reported that upon ligand stimulations, receptor tyrosine kinases, including PDGFR, are dephosphorylated and inactivated by the PTP1B on the cytoplasmic surface of the ER after the receptors activated at the cell surface were internalized by endocytosis (Haj, F. G., Verveer, P. J., Squire, A., Neel, B. G. and Bastiaens, P. I. H. (2002), Science, 295, 1708-1711).
The inventors expected the overexpressed PTP1B to selectively dephosphorylate the endocytosed PDGFR and to inhibit the recruitment and activation of PI3K by the PDGFR on the cytoplasmic surface of ER, without affecting the PDCFR in the plasma membrane.

[1] = system: clathrin-mediated endocytosis of PDGFR; assay: Effect of DynK44A expression on PIP3 increase in CHO-PDGFR cells; assay type: cell-based, Chinese hamster
Experimental: To explore the molecular mechanism, which underlies the PIP3 increase in the endomembranes, the effect on the PIP3 increase of a dominant-negative mutant of dynamin (DynK44A), in which the lysine 44 is substituted by an alanine, was assessed.
The dynamin is a guanosine triphosphatase (GTPase) that controls the clathrin-mediated endocytosis (Qualmann, B., Kessels, M. M. and Kelly, R. B. (2000) J. Cell Biol., 150, F111-F116) of receptor tyrosine kinases, including PDGFR. DynK44A lacks the GTPase activity and inhibits a clathrin-mediated endocytosis of PDGFR.
The DynK44A was expressed in CHO-PDCFR cells by adenovirus-mediated gene transfer, the cells were stimulated with PDGF (50 ng/mL) and time course of CFP/YFP in endomembranes was measured as shown in FIG. 11. […] On the other hand, in the plasma membrane, the FRET response of Fllip-pm was immediately observed upon PDGF stimulation even in the presence of the DynK44A expression, as observed in the absence of the DynK44A expression (FIG. 12).

Molecule	PDGF-stimulated PIP3 increase in endomembranes (PDGFR; Fllip-em, PDGF 50 ng/mL)	PIP3 increase in the plasma membrane upon PDGF stimulation (PDGFR; monitored with Fllip-pm)	PIP3 increase in the endomembranes by insulin and epidermal growth factor ([1]; DynK44A overexpression)	PDGF-stimulated PIP3 increase in the endomembranes ([1]; overexpression of DynK44A, PDGF 50 ng/mL)	PDGF-stimulated PIP3 increase in the plasma membrane ([1]; overexpression of DynK44A, PDGF 50 ng/mL, Fllip-pm)
B1	completely lost	not affected			
B2			inhibited	completely inhibited	not affected

Source: US7507555B2, “Probe for detecting and quantifying lipid second messenger and method of detecting and quantifying lipid second messenger using the same” (Japan Science and Technology Agency, priority 2003, dated 2009)
